Read-outs that look alike come from different tables or passages of the source.
Experiments:
TGF-β1 [1] = target: T1, TGF-β1 (UniProt P01137 279-390); experiment: cell-based or functional assay
TGF-β1 [2] = target: T1, TGF-β1; experiment: cell-based or functional assay; remark: listed apart in the source
TGF-β1 [3] = target: T1, TGF-β1; experiment: cell-based or functional assay; remark: listed apart in the source
TGF-β1 [4] = target: T1, TGF-β1; experiment: cell-based or functional assay; remark: listed apart in the source
TGF-β1 [5] = target: T1, TGF-β1; experiment: SPR (Biacore); amine-coupled TGF-β1 on chip, antibody as analyte, kinetic fit
Source text: Recombinant mAb1-D10 fusion variants of Example 7 were also quantitatively assessed for TGF-β1 binding using surface plasmon resonance (SPR) as detected by Biacore. Samples containing purified variants were passed over a sensor chip with amine-coupled TGF-β1 to determine the equilibrium constant, KD. A target immobilization level of less than 100 response units (RU) of TGF-β1 was chosen to minimize the potential for avidity effects arising from binding adjacent TGF-β1 molecules on the chip. The level of immobilization was determined by the change in response units after NHS/EDC activation of the chip surface, but before quenching with ethanolamine. The fusion variants, WT fusion variant F1, and mAb1 control were diluted to 30, 10, 3, 1 and 0.37 nM in HBS-EP buffer and passed over the TGF-β1 chip at 30 μL/min for 3 min, followed by 5 min dissociation in the same buffer. Between runs, the chip surface was regenerated to remove any bound antibody by passing two 30 sec injections of 40 mM HCl over the chip at a flow rate of 75 μL/min. […] Unexpectedly, the maximum signal (RU) elicited by the fusion variants decreased with increasing number of peptides, with variant F17 (D10-HC-D10/D10-LC, PAR=6) showing the lowest signal. […] A possible explanation of this decline may reflect electrostatic repulsion between the chip matrix (carboxymethyl dextran) and the negatively charged D10 peptides.

T1 sequence (P01137 279-390 limits assumed): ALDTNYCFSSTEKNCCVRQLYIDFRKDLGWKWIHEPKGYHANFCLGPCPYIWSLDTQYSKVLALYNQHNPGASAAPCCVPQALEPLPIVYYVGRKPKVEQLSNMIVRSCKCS

Row | half-maximal inhibition of IL-11 release (EC50), A549 cells (TGF-β1 [1]) | IC50 (read off the curve); IL-11 release by A549 cells in response to TGF-β1 (TGF-β1 [2]) | IC50 (read off the curve); IL-11 release by A549 cells in response to TGF-β1 (TGF-β1 [3]) | IC50 (read off the curve); IL-11 release by A549 cells in response to TGF-β1 (TGF-β1 [4]) | Kd (TGF-β1 [5]) | koff (TGF-β1 [5]) | kon (TGF-β1 [5]) | Binder
1 | ~0.1 nM | ~0.05 nM |  |  |  |  |  | mAb1 control conjugate (PAR=0) (antibody, mouse IgG1, kappa, hinge disulfides reduced; D10-maleimide peptide omitted; thiols blocked with N-ethylmaleimide) heavy: HVQLQQSGPELVRPGASVKLSCKASGYIFITYWMNWVKQRPGQGLEWIGQIFPASGSTNYNEMFEGKATLTVDTSSSTAYMQLSSLTSEDSAVYYCARGDGNYALDAMDYWGQGTSVTVSSAKTTPPSVYPLAPGSAAQTNSMVTLGCLVKGYFPEPVTVTWNSGSLSSGVHTFPAVLQSDLYTLSSSVTVPSSTWPSQTVTCNVAHPASSTKVDKKIVPRDCGCKPCICTVPEVSSVFIFPPKPKDVLTITLTPKVTCVVVDISKDDPEVQFSWFVDDVEVHTAQTKPREEQFNSTFRSVSELPIMHQDWLNGKEFKCRVNSAAFPAPIEKTISKTKGRPKAPQVYTIPPPKEQMAKDKVSLTCMITDFFPEDITVEWQWNGQPAENYKNTQPIMDTDGSYFVYSKLNVQKSNWEAGNTFTCSVLHEGLHNHHTEKSLSHSPGK light: NIVLTQSPASLAVSLGQRATISCRASESVDSYGNSFMHWYQQKSGQPPKLLIYLASNLESGVPARFSGSGSRTDFTLTIDPVEADDAATYYCQQNNEDPLTFGAGTKLELKRADAAPTVSIFPPSSEQLTSGGASVVCFLNNFYPKDINVKWKIDGSERQNGVLNSWTDQDSKDSTYSMSSTLTLTKDEYERHNSYTCEATHKTSTSPIVKSFNRNEC
2 | ~0.1 nM | ~0.04 nM |  |  |  |  |  | mAb1-D10 conjugate (PAR=9) (antibody, mouse IgG1, kappa, Ac-D10-C2-PEG12-C6-maleimide possibly on a light chain cysteine; Ac-D10-C2-PEG12-C6-maleimide on reduced hinge region cysteines; average 9 peptides per antibody (heavy and light chains together)) heavy: HVQLQQSGPELVRPGASVKLSCKASGYIFITYWMNWVKQRPGQGLEWIGQIFPASGSTNYNEMFEGKATLTVDTSSSTAYMQLSSLTSEDSAVYYCARGDGNYALDAMDYWGQGTSVTVSSAKTTPPSVYPLAPGSAAQTNSMVTLGCLVKGYFPEPVTVTWNSGSLSSGVHTFPAVLQSDLYTLSSSVTVPSSTWPSQTVTCNVAHPASSTKVDKKIVPRDCGCKPCICTVPEVSSVFIFPPKPKDVLTITLTPKVTCVVVDISKDDPEVQFSWFVDDVEVHTAQTKPREEQFNSTFRSVSELPIMHQDWLNGKEFKCRVNSAAFPAPIEKTISKTKGRPKAPQVYTIPPPKEQMAKDKVSLTCMITDFFPEDITVEWQWNGQPAENYKNTQPIMDTDGSYFVYSKLNVQKSNWEAGNTFTCSVLHEGLHNHHTEKSLSHSPGK light: NIVLTQSPASLAVSLGQRATISCRASESVDSYGNSFMHWYQQKSGQPPKLLIYLASNLESGVPARFSGSGSRTDFTLTIDPVEADDAATYYCQQNNEDPLTFGAGTKLELKRADAAPTVSIFPPSSEQLTSGGASVVCFLNNFYPKDINVKWKIDGSERQNGVLNSWTDQDSKDSTYSMSSTLTLTKDEYERHNSYTCEATHKTSTSPIVKSFNRNEC
3 | ~0.1 nM | ~0.2 nM | ~0.2 nM | ~0.1 nM | 6 nM | 0.001 s⁻¹ | 167000 M⁻¹ s⁻¹ | mAb1 (mouse IgG1 anti-TGFβ monoclonal antibody, R&D Systems Clone #1D11) (antibody, Mouse IgG1, pan-specific anti-TGFβ; bought antibody used as control; also called unmodified mAb; mAb1 control) heavy: HVQLQQSGPELVRPGASVKLSCKASGYIFITYWMNWVKQRPGQGLEWIGQIFPASGSTNYNEMFEGKATLTVDTSSSTAYMQLSSLTSEDSAVYYCARGDGNYALDAMDYWGQGTSVTVSSAKTTPPSVYPLAPGSAAQTNSMVTLGCLVKGYFPEPVTVTWNSGSLSSGVHTFPAVLQSDLYTLSSSVTVPSSTWPSQTVTCNVAHPASSTKVDKKIVPRDCGCKPCICTVPEVSSVFIFPPKPKDVLTITLTPKVTCVVVDISKDDPEVQFSWFVDDVEVHTAQTKPREEQFNSTFRSVSELPIMHQDWLNGKEFKCRVNSAAFPAPIEKTISKTKGRPKAPQVYTIPPPKEQMAKDKVSLTCMITDFFPEDITVEWQWNGQPAENYKNTQPIMDTDGSYFVYSKLNVQKSNWEAGNTFTCSVLHEGLHNHHTEKSLSHSPGK light: NIVLTQSPASLAVSLGQRATISCRASESVDSYGNSFMHWYQQKSGQPPKLLIYLASNLESGVPARFSGSGSRTDFTLTIDPVEADDAATYYCQQNNEDPLTFGAGTKLELKRADAAPTVSIFPPSSEQLTSGGASVVCFLNNFYPKDINVKWKIDGSERQNGVLNSWTDQDSKDSTYSMSSTLTLTKDEYERHNSYTCEATHKTSTSPIVKSFNRNEC
4 | ~0.1 nM | ~0.06 nM |  |  |  |  |  | mAb1-D10 conjugate (PAR=5) (antibody, mouse IgG1, kappa, Ac-D10-C2-PEG12-C6-maleimide on reduced hinge region cysteines; average 5 peptides per antibody) heavy: HVQLQQSGPELVRPGASVKLSCKASGYIFITYWMNWVKQRPGQGLEWIGQIFPASGSTNYNEMFEGKATLTVDTSSSTAYMQLSSLTSEDSAVYYCARGDGNYALDAMDYWGQGTSVTVSSAKTTPPSVYPLAPGSAAQTNSMVTLGCLVKGYFPEPVTVTWNSGSLSSGVHTFPAVLQSDLYTLSSSVTVPSSTWPSQTVTCNVAHPASSTKVDKKIVPRDCGCKPCICTVPEVSSVFIFPPKPKDVLTITLTPKVTCVVVDISKDDPEVQFSWFVDDVEVHTAQTKPREEQFNSTFRSVSELPIMHQDWLNGKEFKCRVNSAAFPAPIEKTISKTKGRPKAPQVYTIPPPKEQMAKDKVSLTCMITDFFPEDITVEWQWNGQPAENYKNTQPIMDTDGSYFVYSKLNVQKSNWEAGNTFTCSVLHEGLHNHHTEKSLSHSPGK light: NIVLTQSPASLAVSLGQRATISCRASESVDSYGNSFMHWYQQKSGQPPKLLIYLASNLESGVPARFSGSGSRTDFTLTIDPVEADDAATYYCQQNNEDPLTFGAGTKLELKRADAAPTVSIFPPSSEQLTSGGASVVCFLNNFYPKDINVKWKIDGSERQNGVLNSWTDQDSKDSTYSMSSTLTLTKDEYERHNSYTCEATHKTSTSPIVKSFNRNEC

Source: patent US20210163584A1 (Sanofi, published 2021)
